Experimental data from US20080075726A1 (VACCINEX, published 2008).
Where a chain is given by its changes, count along the chain named.

B1: mAb 186 (antibody, V domains shown)
VH: QVTLKESGPALVKPTQTLTLTCTFSGFSLTTSGMCVSWIRQPPGKALEWLALIYWDDDKRYNPSLRSRLTITKDTSKNQVVLTMTNMDPVDTATYYCARSYDDYLYYALDYWGQGTLVT
VL: DVVMTQSPSSLSASVGGRVTITCRASQTIGDYLNWYQQKPGKAPRLLIYSASIVQSGVPSRFSASGSGTDFTLTISSLQPEDFATYSCQQSYSFPLTFGGGTKLEIK
B2: mAb 188 (antibody, V domains shown)
VH: B1 VH
VL: DIQMTQSPSTLSASVGDRVTITCRASQSISRWLAWYQQKPGKAPKLLISKASSLEYGVPSRFSGSGSGTEFALTISNVQPEDFATYYCQQSFAVPLTFGGGTKLEIK
B3: mAb 190 (antibody, V domains shown)
VH: B1 VH
VL: DIQMTQSPSSLSASVGDSVTITCRASQTISDFLNWYQQKPGKAPKLLIHASSNLQSGVPSRFSGSGSGTDFTLTISDLQPEDFATYSCQQTYSTLGTFGQGTRLE
B4: mAb 192 (antibody, V domains shown)
VH: B1 VH
VL: DIVMTQSPSSLSASVGDRVTITCRASRNINTYLNWYQQKPGKAPKLLVHSASTLQSGAPSRFSGSGYGTEFTLIISSLQPDDFATYYCQQGYNTLTFGPGTKLE
B5: mAb 189 (antibody, V domains shown)
VH: B1 VH
VL: DIQMTQSPSSLSAFVGDGVTMTCWASQSINDYLNWYHQRPGEAPELLVFAASNLQIGVPSRFRGSGSETYFTLTINSLQPEDSGTYFCQQTSSFPLTFGGGTKLE
B6: mAb 286 (antibody, V domains shown)
VH: B1 VH with T30S, A51T, N62S, R66E, S67T
VL: DIVMTQSPSSLSASVGDRVTITCRASQTISSYLNWYQQKPGKPPKLLIYAASSLESGVPSRFSGSGSGTEFTLTISSLQPEDLATYYCQQANSFPLTFGGGTKLE
B7: mAb 185 (antibody, V domains shown)
VH: B1 VH
VL: DVVMTQSPSSVSASVGDRVTITCRASQVIDSWLHWYQREPGKAPKILIYAATTLQRGVPSRFSGSGFGTEFTLTISGLQPEDFATYFCQQGYSFPITFGQGTRLEIK
B8: mAb 187 (antibody, V domains shown)
VH: B1 VH
VL: EIVLTQSPSSLSASAGDTVTIACRASQGIRTALAWYQQKPGRNPKLLISEAYRLQSGVSPKFSGSGFGTDFTLTINSLQPEDFATYYCQQFNDFPLTFGGGTKLEIK
B9: mAb 123 (antibody, V domains shown)
VH: B1 VH with Y101H
VL: DIVMTQSPATLSVTPGDRVSLSCRASQSISDYLHWYQQKSHESPRLLIKSVSQSISGIPSRFSGSGSGSDFTLSINSVEPEDVGVYYCQNGHSFPLTFGAGTKLELK
B10: mAb 193 (antibody, V domains shown)
VH: B1 VH
VL: EIVLTQSPSSLSASVGDRVTISCRASQNIIDYLNWYQHKPGKVPTLLISGTSTLQSGVPSRFSGSGFGTDFTLTISSVQPEDVATYYCQQGHGTPLSFGGGTKLEIK
B11: mAb 968 (antibody, V domains shown)
VH: QVTLKESGPTLVKPTQTLTLTCSFSGFSLSTSGVGVGWVRQPPGKALEWLAFIFWDDDKYYSPSLESRLTITKDTSKNQVVLTMTNMDPVDTATYYCARSYDDYLYYAFDYWGQGTLVT
VL: DIQMTQSPSSLSAFVGDGVTMTCWASQSINDYLNWYHQRPGEAPELLVFAASNLQIGVPSRFRGSGSETYFTLTINSLQPEDSGTYFCQNGHSFPLTFGGGTKLEI
B12: mAb 1123 (antibody, V domains shown)
VH: B11 VH with S100F, F109L
VL: B11 VL
B13: mAb 992 (antibody, V domains shown)
VH: B11 VH with F109L, Y111T
VL: B11 VL
B14: mAb 197 (antibody, V domains shown)
VH: B1 VH with Y101H
VL: B7 VL
B15: mAb 201 (antibody, V domains shown)
VH: B1 VH with Y101H
VL: B5 VL
B16: mAb 770 (antibody, V domains shown)
VH: B11 VH with F109L
VL: B11 VL with N90H
B17: mAb 205 (antibody, V domains shown)
VH: B1 VH with Y101H
VL: B10 VL
B18: mAb 808 (antibody, V domains shown)
VH: B11 VH with F109L
VL: B11 VL with H92W
B19: mAb 1156 (antibody, V domains shown)
VH: B11 VH with Y101A, A108S, Y111T
VL: B11 VL with N90S
B20: mAb 1192 (antibody, V domains shown)
VH: B11 VH with F54W, F109L
VL: B11 VL
B21: mAb 191 (antibody, V domains shown)
VH: B1 VH
VL: B1 VL with K39R, A64G, D70H
B22: mAb 1155 (antibody, V domains shown)
VH: B11 VH with Y101A, A108S, Y111T
VL: B11 VL with N90H
B23: mAb 1127 (antibody, V domains shown)
VH: B11 VH with Y106M, F109L
VL: B11 VL
B24: mAb 179 (antibody, V domains shown)
VH: B1 VH
VL: B9 VL
B25: mAb 765 (antibody, V domains shown)
VH: B11 VH with F109L
VL: B11 VL with G91A
B26: mAb 202 (antibody, V domains shown)
VH: B1 VH with Y101H
VL: B3 VL
B27: mAb 963 (antibody, V domains shown)
VH: B11 VH with Y101G, F109L
VL: B11 VL
B28: mAb 275 (antibody, V domains shown)
VH: B1 VH
VL: B11 VL
B29: mAb 1154 (antibody, V domains shown)
VH: B11 VH with Y101A, A108S, Y111T
VL: B11 VL
B30: mAb 810 (antibody, V domains shown)
VH: B11 VH with A108S, F109L
VL: B11 VL
B31: mAb 774 (antibody, V domains shown)
VH: B11 VH with F109L
VL: B11 VL with N90S
B32: mAb 239 (antibody, V domains shown)
VH: QVTLKESGPTLVKPTQTLTLTCIFSGFSFKTSGVSVGWIRQPPGKALEWLALIYWDDDKRYSPSLKNRLTITRDTSKNQVVLTMTNMDPVDTATYYCARSYDDYLYYALDYWGQGTLVT
VL: DVVMTQSPSSVSASVGDRVTITCRASQDIDNFLAWYQQKPGKAPNLLIYKVSSLRSGVPSRFSGSRSGTDFTLTITSLQPEDFATYFCQQTRRFPLTFGPGTKLE
B33: mAb 285 (antibody, V domains shown)
VH: B1 VH with T30S, A51T, N62S, R66E, S67T
VL: B32 VL
B34: mAb 241 (antibody, V domains shown)
VH: B11 VH with F109L
VL: B32 VL
B35: mAb 237 (antibody, V domains shown)
VH: B32 VH with I23T, F29L, K30R, I39F, I53V, K59R, S62N
VL: B32 VL

target: T1, recombinant human IL-6 (human, UniProt P05231 30-212, limits assumed); assay: competition ELISA, rhIL-6 in solution against captured IL-6
T1 construct: also called rhIL6; human recombinant IL-6
Description: Briefly, plates were coated with 2 μg/ml of mBE4 capture antibody in coating buffer, 100 μl per well. The plates were incubated overnight. Next, the plates were washed 3 times and tapped dry. The plates were then blocked with 200 μl per well of Assay Diluent or 10% FBS in PBS and incubated for 2 hours. […] The reaction was left at RT for 3-4 hours. […] Next, the plates were washed 3 times and tapped dry. […] The plates were incubated for 1-2 hours. The plates were washed 3 times and tapped dry. […] The plates were incubated at RT for 2 hours. (Therefore, any unbound mAb at this point will be measured by ELISA). Plates were then washed 5 times and tapped dry. 100 μl of detection Ab goat anti-human IgG F(ab)′2-HRP (Jackson lab) was added at 1:20,000 dilutions or 1:40,000 dilutions (depending on lot) and the plates were incubated for 1-2 hours. The plates were washed 7 times and tapped dry. Next, the Developer Substrate (equal parts of each reagent in the kit) was pre-mixed and allowed to warm to room temperature before use. Then 100 μl of Developer was added to each well. The plates were allowed to develop for 15 minutes un-sealed in a drawer in the dark. Finally, developing was stopped by adding 100 μl of 2N H₂SO₄ to each well and plates were read as Endpoint at 450 nm-[…].

IC50 [nM] | Binder
2 | B1
1.4 | B2
1.9 | B3
2.3 | B4
0.72 | B5
2.5 | B6
1.5 | B7
2.4 | B8
1.1 | B9
2.7 | B10
0.053 | B11
0.11 | B12
0.065 | B13
3.7 | B14
2 | B15
0.12 | B16
7.4 | B17
0.08 | B18

IC50 [nM] | Binder
0.023 | B19
0.029 | B20
1.5 | B21
0.032 | B22
0.09 | B23
0.85 to 4.2 | B24
0.07 | B25
2.4 | B26
0.09 | B27
0.7 | B28
0.027 | B29
0.22 | B30
0.16 | B31
9.6 | B32
2.5 | B33
6.5 | B34
6.5 | B35
